Patent US20100028924A1, “Method Of Diagnosing Pon1-Hdl Associated Lipid Disorders” (Rappaport Family Institute Research in the Medical Sciences, priority 2006, published 2010)

Legend:
[1] = biological target: rHDL-apoA-I (reconstituted discoidal HDL particles carrying apolipoprotein A-I); assay: SPR (BIAcore 3000), biotinylated rHDL-apoA-I on streptavidin chip, PON1 injected, 25° C.
[2] = biological target: rHDL-apoA-I (reconstituted discoidal HDL particles carrying apolipoprotein A-I); assay: SPR, rHDL-apoA-I immobilised; reference Δ20-rePON1-192Q

Sequence of Δ20-rePON1-192Q (P27170 other isoform, or with tags, fused parts or gaps mutant): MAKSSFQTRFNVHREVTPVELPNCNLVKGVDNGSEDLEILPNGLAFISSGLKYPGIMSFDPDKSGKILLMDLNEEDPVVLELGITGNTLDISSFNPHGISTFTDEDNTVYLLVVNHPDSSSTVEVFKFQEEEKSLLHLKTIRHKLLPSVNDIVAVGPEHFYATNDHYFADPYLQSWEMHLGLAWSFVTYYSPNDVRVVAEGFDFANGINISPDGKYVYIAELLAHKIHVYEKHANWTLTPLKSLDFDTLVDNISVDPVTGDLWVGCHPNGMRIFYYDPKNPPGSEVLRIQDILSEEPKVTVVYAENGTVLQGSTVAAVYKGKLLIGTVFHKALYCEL
Sequence of wt Δ20-rePON1-192K (P27170 other isoform, or with tags, fused parts or gaps mutant): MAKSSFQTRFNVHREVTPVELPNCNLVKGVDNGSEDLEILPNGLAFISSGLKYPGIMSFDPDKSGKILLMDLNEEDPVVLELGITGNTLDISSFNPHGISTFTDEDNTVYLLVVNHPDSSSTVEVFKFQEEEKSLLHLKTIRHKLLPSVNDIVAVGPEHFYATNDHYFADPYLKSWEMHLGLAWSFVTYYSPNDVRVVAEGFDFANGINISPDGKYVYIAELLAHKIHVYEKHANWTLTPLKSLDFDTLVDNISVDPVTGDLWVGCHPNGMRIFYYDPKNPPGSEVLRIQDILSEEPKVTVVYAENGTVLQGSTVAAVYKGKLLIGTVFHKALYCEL
Sequence of Δ20-rePON1-192R (P27170 other isoform, or with tags, fused parts or gaps mutant): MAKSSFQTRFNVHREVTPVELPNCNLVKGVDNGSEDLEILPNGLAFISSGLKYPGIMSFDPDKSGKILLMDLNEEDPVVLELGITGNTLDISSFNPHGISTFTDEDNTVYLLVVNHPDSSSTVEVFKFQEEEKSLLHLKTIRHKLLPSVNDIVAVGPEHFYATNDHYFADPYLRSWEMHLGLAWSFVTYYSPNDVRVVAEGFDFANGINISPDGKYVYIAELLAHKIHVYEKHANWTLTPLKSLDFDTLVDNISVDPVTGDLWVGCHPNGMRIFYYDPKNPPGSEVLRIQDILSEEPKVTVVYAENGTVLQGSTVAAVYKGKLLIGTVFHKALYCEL

Substance | Kd [1] | koff [1] | kon [1] | fold higher HDL affinity than the Q isozyme [2] | fold higher HDL binding affinity than the Q isozyme [2]
Δ20-rePON1-192Q (from UniProt P27170 21-355) (enzyme) | 300 nM | 0.042 s⁻¹ | 140000 M⁻¹ s⁻¹ | – | –
Δ20-rePON1-192R (from UniProt P27170 21-355) (enzyme) | 110 nM | 0.029 s⁻¹ | 260000 M⁻¹ s⁻¹ | 3 fold | –
wt Δ20-rePON1-192K (from UniProt P27170 21-355) (enzyme) | 100 nM | 0.02 s⁻¹ | 200000 M⁻¹ s⁻¹ | – | 3 fold
